Test results reported in patent publication US9340577B2, “HLA binding motifs and peptides and their uses” (priority 1992, dated 2016).
Where “and” joins values, the source holds several entries; their conditions need not be identical. Equal values may be shown once.

The substances below were run against A2.1 HLA molecules (Homo sapiens, UniProt P04439, D140Y/D185E/D98H/E176V/E277Q/G131W/G231S/I119V/I121R/I166T/I218V/L300P/L318F/N151K/N90K/P208A/P217A/Q86G/Q94H/R138H/R169H/T345S). Details: not given.
Format: binding
Parameters: A*0201 / A2.1 Binding / A2 Bind. / A2 / A2.1 (binding capacity): scale not given here

Point of comparison: GLWIRTPPV [listing 1 of 2 here], “A2.1 relative binding (ratio of binding of test peptide relative to standard peptide)” value 0.36. Against it:
- RMTGGVFLV [listing 1 of 2 here] — lower, 0.15
- WMELSVMEV — lower, 0.041
- GLSYDGLLV — lower, 0.0047
- LLGDNQIMV — lower, 0.043
- WGLLGFAA — lower, 0.0009
- YLPSALNPV [listing 1 of 2 here] — lower, 0.32
- WLLRGTSFV — lower, 0.10
- SMHCKPEEV — lower, 0.018
- LMLLDYQGMV — lower, 0.0087
- RVSWPKFAV — lower, 0.0028
- GLCAVFADV — lower, 0.030
- LMLQAGFFLV — higher, 0.63
- FLGLSPTVWV [listing 1 of 2 here] — lower, 0.030
- SLDSWWTSV [listing 1 of 2 here] — lower, 0.10
- SMLSPFLPLV [listing 2 of 2 here] — higher, 0.97
- AMGLVCVQV — lower, 0.012
- YLHTLWKAGV [listing 2 of 2 here] — lower, 0.15
- SILSPFLPLL — lower, 0.0025
- LLPFVQWFV — higher, 0.63
- ILGLLGFAV — lower, 0.060
- YLLDLQEPV [listing 2 of 2 here] — lower, 0.22
- LMLGTLEEV — lower, 0.13

Point of comparison: LMCRYTPRL, “A2.1 Binding” value 0.0055. Against it:
- AMPRRVLHA — lower, 0.0014
- TLRMSSKAV — lower, 0.0001
- LMPPPVAEL — higher, 0.0066
- MMWFVVLTV — higher, 0.76
- RLQPNVPLV — higher, 0.048
- FLRVQQKAL — lower, 0.0002
- GLWCVLFFV — higher, 0.47
- ALLLVLALL — lower, 0.0014
- TLNIVRDHV — lower, 0.0005
- PMEAVRHPL — lower, 0
- VLARTFTPV — higher, 0.044
- ELQMMQDWV — lower, 0.0001
- NLEVIHDAL — lower, 0
- TLAA MHYSKL (TLAAMHYSKL) — lower, 0.0008
- AMSFTFTTL — lower, 0.0005
- FMQTYLVTL — higher, 0.68
- LLLYYDYSL — higher, 0.28
- LMIRGVLEV — higher, 0.45
- AMLTACVEV — higher, 0.089
- QLNAMKPDL — lower, 0.0001
- 1.0876 (FLCILLLCL) [Peptide 1.0876] — lower, 0.0007
- WMWFPSVLL — higher, 0.036
- ELKQTRVNL — lower, 0
- PLAYERDKL — lower, 0
- LLLCRLPFL — higher, 0.42
- DMLGRVFFV — higher, 0.011

Point of comparison: RMTGGVFLV [listing 2 of 2 here], “A2 Bind.” value 0.1500. Against it:
- ILGFVFTLT — higher, 0.2600
- LLGRNSFAV — lower, 0.0420
- VMVTCLGLS V (VMVTCLGLSV) — higher, 0.3000
- VVSYVNVNM — lower, 0.0100
- MMWFVVLTV — higher, 0.7600
- WLVTNGSYL — lower, 0.0180
- RLTGGVFLV [listing 1 of 2 here] — higher, 0.1600
- TLMSIVSSL — higher, 0.2000
- ALMPLYASI — lower, 0.0760
- ALHLFKTTV — lower, 0.0170
- LMTLATWVGV — higher, 0.6800
- LMPFVQWFV — higher, 0.8300
- FMWTYLVTL — higher, 0.6800
- IISAVVGILL — lower, 0.0120
- RLLRGLIRL — lower, 0.0370
- GLCQVFADV — lower, 0.0300
- RLQPNVPLV — lower, 0.0480
- LMFSTSAYL — higher, 0.3600
- ALSLIVNLL — lower, 0.0470
- GLWCVLFFV — higher, 0.4700
- LLFFWLDRSV — higher, 0.6000
- CLFHIVNLI — higher, 0.2100
- RMRGTFSAPL — lower, 0.0110
- RMGAVTTEV — lower, 0.0200
- IIGAETFYV — lower, 0.0260
- GMLPVCPLI — lower, 0.0520
- QLFHLCLII — lower, 0.0390
- VLARTFTPV — lower, 0.0440
- KLWVTVYYGV — lower, 0.0150
- LLGANSFEV — lower, 0.1100
- TLATWVGVNL — higher, 0.5700
- ALPPASPSA — lower, 0.0710
- HLPDLVHFA — lower, 0.1100
- SLAFSAVPA — lower, 0.0340
- YMLDLQPEV — higher, 1.9000
- SMLSPFLPLV [listing 1 of 2 here] — higher, 0.9700
- GLWIRTPPV [listing 2 of 2 here] — higher, 0.3600
- YLHTLWKAGV [listing 1 of 2 here] — the same, 0.1500
- ILCWGELMTL — higher, 0.1900
- LLEDWGPCA — lower, 0.0180
- IISCTCPTV — lower, 0.0190
- LLTEVETYVL — lower, 0.0130
- RLGRNSFEV — lower, 0.0190
- ALLDGGNML — lower, 0.0320
- FMLLLCLIFL [listing 1 of 2 here] — lower, 0.0450
- ALISFLLLA — higher, 0.2200
- NLWVTVYYGV — lower, 0.0160
- LLLYYDYSL — higher, 0.2800
- MLLRLSEPAEL — lower, 0.1400
- ALMDLLMFS — higher, 0.4300
- SLYSILSPFL — higher, 0.2000
- LMIRGVLEV — higher, 0.4500
- SLLTEVETYV — lower, 0.0650
- AMLTACVEV — lower, 0.1000
- SLQDIEITCVYCKTV — lower, 0.0100
- YLLDLQEPV [listing 1 of 2 here] — higher, 0.2200
- MVTTTNPLI — lower, 0.0150
- LLVPFVQWFA — higher, 0.2600
- LLGRNSFRV — lower, 0.0250
- ALASCMGLI — lower, 0.0110
- ILGFVFTLTV — lower, 0.0550
- LLGRRSFEV — lower, 0.0540
- SLDSWWTSV [listing 2 of 2 here] — lower, 0.1000
- WMWFPSVLL — lower, 0.0360
- YLPSALNPV [listing 2 of 2 here] — higher, 0.3200
- NLNNLNVSI — lower, 0.0660
- RLPDRVHFA — lower, 0.0940
- FLGLSPTVWV [listing 2 of 2 here] — lower, 0.0300
- LIISCSCPTV — lower, 0.0290
- LLSTTEWQV — lower, 0.0480
- SLYADSPSV — higher, 0.3500
- LLLCRLPFL — higher, 0.4200
- DMLGRVFFV — lower, 0.0110
- YALTVVWLL — lower, 0.0415

Point of comparison: KMFBQLAKV [Peptide 34.014], “A*0201” value 0.0980. Against it:
- LLCPAGHAV [Peptide F127.06] — lower, 0.0140
- SISGVLWQV [Peptide F124.09] — higher, 0.1400
- KLVALGVNAV [Peptide F124.12] — lower, 0.0200
- SLYNTVSTL [Peptide F136.04] — lower, 0.0320
- GLRDCTMLV [Peptide F124.11] — lower, 0.0120
- LLFNILGWV [Peptide F127.09] — higher, 1.7000
- SLMAFTASV [Peptide F124.10] — higher, 0.1200

Point of comparison: LLWKGEGAVV, A2 0.0360. Against it:
- IIGAETFYV — lower, 0.0260
- YLHTLWKAGV [listing 1 of 2 here] — higher, 0.1300
- GLLGCIITSL — higher, 0.0610
- LLALLSCLTI — lower, 0.0340

Point of comparison: 1.0500 (IMAKNBVFCV) [Peptide 1.0500], “A2.1 (binding capacity)” value 0.0088. Against it:
- 1.0689 (VLKDAIKDLV) [Peptide 1.0689] — lower, 0.0002

In the case of RLTGGVFLV [listing 2 of 2 here], the “A2.1 relative binding (ratio of binding of test peptide relative to standard peptide)” value is reported as 0.14 and 0.16.

Same assay, conditions: standard […], IC50 5.0; IC50 = 5.0 divided by ratio

With FMLLLCLIFL [listing 2 of 2 here] the “A2.1 relative binding (ratio of binding of test peptide relative to standard peptide)” value was 0.045.
